B1: SPOPL (parent)
chain: YTGRAPNLDKMADNLLAAADKYAL
B2: UBE2R2 (parent)
chain: DPQSGELPSERWNPTQNVRTILLS

Variants of: B1
Experiment: protein stability index of a GFP-peptide fusion (GPS, HEK-293T) (PSI 1-6); higher = more stable
Conditions: c terminus: a fixed tail appended
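Also: lentivirally expressed fusions sorted by FACS into six bins by GFP to DsRed ratio, PSI derived from sequencing read proportions per bin multiplied by bin number.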

Variant	protein stability index
YTGRAPNLDKMADNLLAAADKYAR	2.24
YTGRAPNLDKMADNLLAAADKYAS	2.73
YTGRAPNLDKMADNLLAAADKYAQ	2.16
YTGRAPNLDKMADNLLAAADKYAN	2.66
YTGRAPNLDKMADNLLAAADKYAP	2.17
YTGRAPNLDKMADNLLAAADKYAW	1.86
YTGRAPNLDKMADNLLAAADKYAY	1.89
YTGRAPNLDKMADNLLAAADKYAT	2.42
YTGRAPNLDKMADNLLAAADKYAV	2

Variants of: B2
Experiment: as above
Conditions: c terminus: a fixed tail appended

Variant	protein stability index
RPQSGELPSERWNPTQNVRTILLS	3.17
KPQSGELPSERWNPTQNVRTILLS	3.7
CPQSGELPSERWNPTQNVRTILLS	3.93
TPQSGELPSERWNPTQNVRTILLS	2.63
HPQSGELPSERWNPTQNVRTILLS	3.34
FPQSGELPSERWNPTQNVRTILLS	2.58
DKQSGELPSERWNPTQNVRTILLS	3.95
DGQSGELPSERWNPTQNVRTILLS	3.06
DMQSGELPSERWNPTQNVRTILLS	3.16
DWQSGELPSERWNPTQNVRTILLS	2.34
DHQSGELPSERWNPTQNVRTILLS	2.88
DRQSGELPSERWNPTQNVRTILLS	3.09
DPQYGELPSERWNPTQNVRTILLS	2.39
DPQRGELPSERWNPTQNVRTILLS	3.87
DPQQGELPSERWNPTQNVRTILLS	3.68
DPQSGELPSERWNPTQDVRTILLS	3.99
DPQSGELPSERWNPTQQVRTILLS	3.6
DPQSGELPSERWNPTQVVRTILLS	2.4
DPQSGELPSERWNPTQPVRTILLS	4.18
DPQSGELPSERWNPTQHVRTILLS	3.04
DPQSGELPSERWNPTQAVRTILLS	3.06
DPQSGELPSERWNPTQGVRTILLS	4.3
DPQSGELPSERWNPTQKVRTILLS	3.23
DPQSGELPSERWNPTPNVRTILLS	3.24
DPQSGELPSERWNPTMNVRTILLS	3.46
DPQSGELPSERWNPTANVRTILLS	3.67

Variant	protein stability index
DPQSGELPSERWNPTSNVRTILLS	3.58
DPQSGELPSERWNPTLNVRTILLS	2.88
DPQSGELPSERWNPTCNVRTILLS	3.04
DPQSGELPSERWNPTKNVRTILLS	3.51
DPQSGELPSERWNPTFNVRTILLS	2.5
DPQSGELPSERWNPTENVRTILLS	2.95
DPQSGELPSERWNPTQNVRNILLS	3.71
DPQSGELPSERWNPTQNVRFILLS	1.57
DPQSGELPSERWNPTQNVRKILLS	4.43
DPQSGELPSERWNPTQNVRCILLS	2.92
DPQSGELPSERWNPTQNVRQILLS	3.76
DPQSGELPSERWNPTQNVRLILLS	2.79
DPQSGELPSERWNPTQNVREILLS	3.19
DPQSGELASERWNPTQNVRTILLS	4.13
DPQSGELWSERWNPTQNVRTILLS	3.05
DPQSGELRSERWNPTQNVRTILLS	3.37
DPQSGELESERWNPTQNVRTILLS	3.82
DPQSGELISERWNPTQNVRTILLS	2.69
DPQSGELDSERWNPTQNVRTILLS	3.68
DPQSGELCSERWNPTQNVRTILLS	4.2
DPQSGELHSERWNPTQNVRTILLS	3.59
DPQSGELPFERWNPTQNVRTILLS	2.4
DPQSGELPCERWNPTQNVRTILLS	3.9
DPQSGELPVERWNPTQNVRTILLS	3.81
DPQSGELPPERWNPTQNVRTILLS	3.43
DPQSGELPWERWNPTQNVRTILLS	2.58

Variant	protein stability index
DPQSGELPTERWNPTQNVRTILLS	3.98
DPQSGELPQERWNPTQNVRTILLS	3.35
DPQSGELPYERWNPTQNVRTILLS	2.92
DPQSGELPEERWNPTQNVRTILLS	3.95
DPQSGELPSERWNPTQNRRTILLS	4.14
DPQSGELPSERWNPTQNSRTILLS	3.92
DPQSGELPSERWNPTQNGRTILLS	4
DPQSGELPSERWNPTQNDRTILLS	3.83
DPQSGELPSERWNPTQNPRTILLS	3.63
DPQSGELPSERWNPTQNHRTILLS	4
DPQSGELPSERWNPTQNWRTILLS	3.24
DPQSGELPSERWNPTQNQRTILLS	4.2
DPQSHELPSERWNPTQNVRTILLS	3.83
DPQSVELPSERWNPTQNVRTILLS	3.27
DPQSLELPSERWNPTQNVRTILLS	3.53
DPQSKELPSERWNPTQNVRTILLS	3.49
DPQSTELPSERWNPTQNVRTILLS	3.93
DPQSPELPSERWNPTQNVRTILLS	2.66
DPQSWELPSERWNPTQNVRTILLS	2.6
DPQSCELPSERWNPTQNVRTILLS	2.8
DPQSGELPSERVNPTQNVRTILLS	4.2
DPQSGELPSERANPTQNVRTILLS	4.61
DPQSGELPSERCNPTQNVRTILLS	3.94
DPQSGELPSERENPTQNVRTILLS	4.71
DPQSGELPSERYNPTQNVRTILLS	4.07
DPQSGELPSERLNPTQNVRTILLS	3.62

Variant	protein stability index
DPQSGELPSERSNPTQNVRTILLS	4.67
DPQSGELPSERFNPTQNVRTILLS	3.92
DPQSGELPSERQNPTQNVRTILLS	4.44
DPQSGELPSERINPTQNVRTILLS	4.35
DPQSGELPSERWNMTQNVRTILLS	3.09
DPQSGELPSERWNHTQNVRTILLS	2.98
DPQSGELPSERWNLTQNVRTILLS	2.79
DPQSGELPSERWNGTQNVRTILLS	3.71
DPQSGELPSERWNCTQNVRTILLS	3.35
DPQSGELPSERWNRTQNVRTILLS	4.28
DPQSGELPSERWNTTQNVRTILLS	4.13
DPQSGELPSERWNWTQNVRTILLS	3.12
DPQSGELPSERWNPTQNVRTILIS	3.17
DPQSGELPSERWNPTQNVRTILNS	4.87
DPQSGELPSERWNPTQNVRTILQS	4.65
DPQSGELPSERWNPTQNVRTILMS	3.7
DPQSGELPSERWNPTQNVRTILVS	3.34
DPQSGELPSERWNPTQNVRTILCS	4.63
DPQSGELPSERWNPTQNVRTILYS	3.22
DPQSGELPSERWNPTQNVRTILAS	4.23
DPQSGELPSERWNPTQNVRTILRS	4.5
DPQSGELPSERWNPTQNVLTILLS	2.61
DPQSGELPSERWNPTQNVPTILLS	3.87
DPQSGELPSERWNPTQNVMTILLS	2.86
DPQSGELPSERWNPTQNVFTILLS	2.6
DPQSGELPSERWNPTQNVCTILLS	3.05

Variant	protein stability index
DPQSGELPSERWNPTQNVKTILLS	3.95
DPQSGELPSERWNPTQNVHTILLS	3.43
DPQSGELPSERWNPTQNVRTIFLS	3.54
DPQSGELPSERWNPTQNVRTIRLS	4.29
DPQSGELPSERWNPTQNVRTIHLS	4.2
DPQSGELPSERWNPTQNVRTIWLS	2.44
DPQSGELPSERWNPTQNVRTIMLS	4.11
DPQSGELPSERWNPTQNVRTIELS	5.13
DPQSGELPSERWNPTQNVRTITLS	4.1
DPQSGEGPSERWNPTQNVRTILLS	3.69
DPQSGEVPSERWNPTQNVRTILLS	3.19
DPQSGEKPSERWNPTQNVRTILLS	3.81
DPQSGEQPSERWNPTQNVRTILLS	4.32
DPQSGEFPSERWNPTQNVRTILLS	3.2
DPQSGESPSERWNPTQNVRTILLS	3.79
DPQSGELPSSRWNPTQNVRTILLS	2.95
DPQSGELPSRRWNPTQNVRTILLS	3.17
DPQSGELPSYRWNPTQNVRTILLS	2.71
DPQSGELPSCRWNPTQNVRTILLS	2.81
DPQSGELPSIRWNPTQNVRTILLS	2.55
DPQSGELPSMRWNPTQNVRTILLS	3.09
DPQSGNLPSERWNPTQNVRTILLS	3.48
DPQSGILPSERWNPTQNVRTILLS	3.24
DPQSGVLPSERWNPTQNVRTILLS	3.17
DPQSGALPSERWNPTQNVRTILLS	3.13
DPQSGPLPSERWNPTQNVRTILLS	2.8

Variant	protein stability index
DPQSGYLPSERWNPTQNVRTILLS	2.95
DPPSGELPSERWNPTQNVRTILLS	3.01
DPSSGELPSERWNPTQNVRTILLS	3.41
DPFSGELPSERWNPTQNVRTILLS	4.05
DPNSGELPSERWNPTQNVRTILLS	3.45
DPKSGELPSERWNPTQNVRTILLS	3.06
DPYSGELPSERWNPTQNVRTILLS	2.42
DPQSGELPSESWNPTQNVRTILLS	3.56
DPQSGELPSEHWNPTQNVRTILLS	3.3
DPQSGELPSEEWNPTQNVRTILLS	4.44
DPQSGELPSEYWNPTQNVRTILLS	2.82
DPQSGELPSENWNPTQNVRTILLS	3.48
DPQSGELPSERWMPTQNVRTILLS	3.79
DPQSGELPSERWIPTQNVRTILLS	2.87
DPQSGELPSERWVPTQNVRTILLS	3.17
DPQSGELPSERWCPTQNVRTILLS	2.78
DPQSGELPSERWLPTQNVRTILLS	3.47
DPQSGELPSERWQPTQNVRTILLS	3.87
DPQSGELPSERWSPTQNVRTILLS	4
DPQSGELPSERWNPTQNVRTILLA	2.82
DPQSGELPSERWNPTQNVRTILLM	2.23
DPQSGELPSERWNPTQNVRTILLT	3.14
DPQSGELPSERWNPTQNVRTILLY	2.04
DPQSGELPSERWNPTQNVRTILLW	1.61
DPQSGELPSERWNPTQNVRTILLV	2.81
DPQSGELPSERWNPTQNVRTILLH	3.58

Variant	protein stability index
DPQSGELPSERWNPTQNVRTILLE	4.23
DPQSGELPSERWNPTQNVRTILLK	4.34
DPQSGELPSERWNPTQNVRTILLR	3.16
DPQSGELPSERWNPTQNVRTRLLS	4.52
DPQSGELPSERWNPTQNVRTGLLS	4.81
DPQSGELPSERWNPTQNVRTVLLS	3.9
DPQSGELPSERWNPTQNVRTKLLS	4.61
DPQSGELPSERWNPTQNVRTMLLS	4.12
DPQSGELPSERWNPTQNVRTTLLS	4.26
DPQSGELPSERWNPTQNVRTDLLS	4.6
DPQSGELPSERWNPTQNVRTALLS	5.11
DPQSGELPSERWNPWQNVRTILLS	2.13
DPQSGELPSERWNPGQNVRTILLS	3.53
DPQSGELPSERWNPSQNVRTILLS	3.39
DPQSGELPSERWNPMQNVRTILLS	2.86
DPQSGELPSERWNPKQNVRTILLS	3.5
DPQSGELPSERWNPNQNVRTILLS	3.89
DPQSGELPSERWNPHQNVRTILLS	3.79
DPQSGELPSERWNPAQNVRTILLS	3.15
DPQSGELPSERWNPYQNVRTILLS	3.22
DPQSGELPSERWNPLQNVRTILLS	2.86
DPQSGELPSERWNPCQNVRTILLS	3.26
DPQSGELPSERWNPIQNVRTILLS	2.78

From the supplement of paper PMC10567573
